In paper PMC3235114, “Characterization of the Partitioning System of Myxococcus Plasmid pMF1”:

Columns and labels:
[1] = target: T1, ParC (ORF21, pMF1.21 product) (Myxococcus fulvus 124B02 plasmid pMF1, UniProt B0YR30 1-87); assay: EMSA; data not shown; EMSA: 12 mM HEPES, 4 mM Tris-HCl pH 8.0, 60 mM KCl, 5 mM MgCl2, 0.1 mM EDTA, 1 ug poly(dI-dC), 2% glycerol, 12 pmol probe, 30 min 30 C; footprint: HEMG (50 mM EDTA as printed, 50 mM KCl, 12.5 mM HEPES pH 7.6, 6 mM MgCl2, 5% glycerol), 20 mM HEPES pH 7.6, 5 ug poly(dI-dC), 30 min 30 C; conditions: protein: recombinant, tags: His6 (pET-15b), label: 3' biotin
T1 sequence: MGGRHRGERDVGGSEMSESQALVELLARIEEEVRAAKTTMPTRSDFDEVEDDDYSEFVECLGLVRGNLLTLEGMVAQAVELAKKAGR

[2] = target: T2, ParB (ORF23, pMF1.23 product), His-tag free (Myxococcus fulvus 124B02 plasmid pMF1, UniProt B0YR32 12-86); assay: EMSA; similar affinity to His-tagged protein; EMSA: 12 mM HEPES, 4 mM Tris-HCl pH 8.0, 60 mM KCl, 5 mM MgCl2, 0.1 mM EDTA, 1 ug poly(dI-dC), 2% glycerol, 12 pmol probe, 30 min 30 C; footprint: HEMG (50 mM EDTA as printed, 50 mM KCl, 12.5 mM HEPES pH 7.6, 6 mM MgCl2, 5% glycerol), 20 mM HEPES pH 7.6, 5 ug poly(dI-dC), 30 min 30 C; conditions: protein: recombinant; tags: none; label: 3' biotin; blunt
T2 sequence: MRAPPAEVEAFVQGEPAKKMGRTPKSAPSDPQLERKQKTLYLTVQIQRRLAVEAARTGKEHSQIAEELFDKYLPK

[3] = target: T3, ParB (ORF23, pMF1.23 product), His-tagged (Myxococcus fulvus 124B02 plasmid pMF1, UniProt B0YR32 12-86); assay: EMSA; poly(dI-dC), 5 mM MgCl2; unlabeled ItA competes; EMSA: 12 mM HEPES, 4 mM Tris-HCl pH 8.0, 60 mM KCl, 5 mM MgCl2, 0.1 mM EDTA, 1 ug poly(dI-dC), 2% glycerol, 12 pmol probe, 30 min 30 C; footprint: HEMG (50 mM EDTA as printed, 50 mM KCl, 12.5 mM HEPES pH 7.6, 6 mM MgCl2, 5% glycerol), 20 mM HEPES pH 7.6, 5 ug poly(dI-dC), 30 min 30 C; conditions: protein: recombinant; tags: N-terminal His6 (pET-15b); label: 3' biotin; blunt
T3 sequence: T2 sequence

[4] = target: T3, ParB (ORF23, pMF1.23 product), …; assay: EMSA; up to 1000 ng protein; EMSA: 12 mM HEPES, 4 mM Tris-HCl pH 8.0, 60 mM KCl, 5 mM MgCl2, 0.1 mM EDTA, 1 ug poly(dI-dC), 2% glycerol, 12 pmol probe, 30 min 30 C; footprint: HEMG (50 mM EDTA as printed, 50 mM KCl, 12.5 mM HEPES pH 7.6, 6 mM MgCl2, 5% glycerol), 20 mM HEPES pH 7.6, 5 ug poly(dI-dC), 30 min 30 C; conditions: protein: recombinant; tags: N-terminal His6 (pET-15b); label: 3' biotin
[5] = target: T3, ParB (ORF23, pMF1.23 product), …; assay: EMSA; EMSA: 12 mM HEPES, 4 mM Tris-HCl pH 8.0, 60 mM KCl, 5 mM MgCl2, 0.1 mM EDTA, 1 ug poly(dI-dC), 2% glycerol, 12 pmol probe, 30 min 30 C; footprint: HEMG (50 mM EDTA as printed, 50 mM KCl, 12.5 mM HEPES pH 7.6, 6 mM MgCl2, 5% glycerol), 20 mM HEPES pH 7.6, 5 ug poly(dI-dC), 30 min 30 C; conditions: protein: recombinant; tags: N-terminal His6 (pET-15b); label: 3' biotin; blunt
[6] = target: T3, ParB (ORF23, pMF1.23 product), …; assay: EMSA; unlabeled ItB competes; EMSA: 12 mM HEPES, 4 mM Tris-HCl pH 8.0, 60 mM KCl, 5 mM MgCl2, 0.1 mM EDTA, 1 ug poly(dI-dC), 2% glycerol, 12 pmol probe, 30 min 30 C; footprint: HEMG (50 mM EDTA as printed, 50 mM KCl, 12.5 mM HEPES pH 7.6, 6 mM MgCl2, 5% glycerol), 20 mM HEPES pH 7.6, 5 ug poly(dI-dC), 30 min 30 C; conditions: protein: recombinant; tags: N-terminal His6 (pET-15b); label: 3' biotin; blunt

B1: ItA (dsDNA)
DNA 1: GGAAGTCTGGAAGTCTAGATGTCTAGATGTTTGAATGTTTGGAGTGGG
DNA 2: CCCACTCCAAACATTCAAACATCTAGACATCTAGACTTCCAGACTTCC
[1]; blunt
  binding result: no binding
[2]
  binding result: binds
[3]
  binding result: binds

B2: non-iteron fragment (dsDNA)
DNA 1: CGGGCGTCACAGGGGGGAACGCGATGTTGGAGGGTCGGAAATGAGCGAGTCG
DNA 2: CGACTCGCTCATTTCCGACCCTCCAACATCGCGTTCCCCCCTGTGACGCCCG
[1]
  binding result: no binding
[4]
  binding result: no binding

B3: ItC (dsDNA)
DNA 1: AGACATCTGGAAGTCTGGATGTC
DNA 2: GACATCCAGACTTCCAGATGTCT
[5]
  binding result: binds

B4: ItB (dsDNA)
DNA 1: GTGATGTCTAGAGGTCTGGATGTCTAGATGTCTAGATGTCT
DNA 2: AGACATCTAGACATCTAGACATCCAGACCTCTAGACATCAC
[6]
  binding result: binds

B5: ItF (dsDNA)
DNA 1: AGAGGTCTAGGTGTCTGGAAGTCTGGAGGTCTGGATGTC
DNA 2: GACATCCAGACCTCCAGACTTCCAGACACCTAGACCTCT
[5]
  binding result: binds

B6: ItD (dsDNA)
DNA 1: AGAAGTCCAGACATCTGGACATTCAGAAGTCTAGACATCTGGATGTCCAGATGGGG
DNA 2: CCCCATCTGGACATCCAGATGTCTAGACTTCTGAATGTCCAGATGTCTGGACTTCT
[5]
  binding result: binds

B7: ItE (dsDNA)
DNA 1: AAGTGTCTAGATGTCTAGATGTCT
DNA 2: AGACATCTAGACATCTAGACACTT
[5]
  binding result: binds
